Here are results for 15 molecules from patent publication US20240092890A1 (JUNTENDO EDUCATIONAL FOUNDATION, published 2024).

What is called Kd is the free concentration of one partner at which half of the binding sites on the other are occupied at equilibrium, for simple one-to-one binding.

Experiment [1] deals with T1, protein having an Fc region and a His-tag added to the N-terminus of SEQ ID NO: 1.
T1 construct: also called mutant CALR protein (antigen of the BLItz measurement); not shown: Fc region and His-tag at the N-terminus
T1 chain: RRMMRTKMRMRRM
The experiment can be described thus: BLItz biolayer interferometry, Fc/His-SEQ ID NO: 1 protein on the biosensor. As for the experimental part: As another method, measurements were performed using the molecular interaction analysis system BLItz (ForteBio), which applies biolayer interferometry […]. Specifically, a protein having an Fc region and a His-tag added to the N-terminus of SEQ ID NO: 1 was immobilized at a concentration of 0.1 mg/mL using the Anti-Penta-HIS or ProteinA biosensor (ForteBio). Subsequently, the antibodies 1 to 114 made were prepared at a concentration of 500, 100, and 50 nM and reacted to acquire the dissociation constant.
(In general: Biolayer interferometry detects binding as a change in optical thickness at a sensor tip.)

Experiment [2] addresses T2, Ins 5 type mutant CALR protein on UT-7/TPO CALR Ins 5 cells (UniProt P27797 18-417).
T2 sequence (looked up): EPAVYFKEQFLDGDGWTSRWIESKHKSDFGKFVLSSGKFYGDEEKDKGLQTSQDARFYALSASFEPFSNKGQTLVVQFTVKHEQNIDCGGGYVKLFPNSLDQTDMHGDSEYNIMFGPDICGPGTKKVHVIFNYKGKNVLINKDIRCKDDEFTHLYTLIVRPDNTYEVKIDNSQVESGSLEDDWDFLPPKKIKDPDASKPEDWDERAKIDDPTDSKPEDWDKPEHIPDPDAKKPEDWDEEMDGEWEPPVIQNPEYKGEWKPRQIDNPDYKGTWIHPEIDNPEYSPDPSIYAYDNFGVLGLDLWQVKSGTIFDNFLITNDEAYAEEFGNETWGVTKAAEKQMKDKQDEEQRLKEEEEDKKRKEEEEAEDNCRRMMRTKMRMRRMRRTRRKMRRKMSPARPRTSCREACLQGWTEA
The experiment is described as follows: cell-based or functional assay.

B1: Antibody 112 (bispecific antibody, human IgG1, kappa, L234A L235A)
chain 1: not shown
chain 2: DIQMTQSPSSLSASVGDRVTITCLASEDIYSYLAWYQQKPGKAPKLLIFAANRLQDGVPSRFSGSGSGTDFTLTISSLQPEDFATYYCLQGSKFPYTFGPGTKVDIKGGGGSGGGGSGGGGSQVQLVQSGAEVKKPGSSVKVSCKASGYTFTRNFIHWIRQAPGQGLEWIGWIFPGDADTEYNQKFSGRATITADKSTSTAYMELSSLRSEDTAVYYCARGNYNYEYFDYWGQGTMVTVSSDKTHTCPPCPAPEAAGGPSVFLFPPKPKDTLMISRTPEVTCVVVDVSHEDPEVKFNWYVDGVEVHNAKTKPREEQYNSTYRVVSVLTVLHQDWLNGKEYKCKVSNKALPAPIEKTISKAKGQPREPQVCTLPPSREEMTKNQVSLSCAVKGFYPSDIAVEWESNGQPENNYKTTPPVLDSDGSFFLVSKLTVDKSRWQQGNVFSCSVMHEALHNHYTQKSLSLSPGK
chain 3: DIQMTQSPSSLSASVGDRVTITCLASEDIYSYLAWYQQKPGKAPKLLIFAANRLQDGVPSRFSGSGSGTDFTLTISSLQPEDFATYYCLQGSKFPYTFGPGTKVDIKRTVAAPSVFIFPPSDEQLKSGTASVVCLLNNFYPREAKVQWKVDNALQSGNSQESVTEQDSKDSTYSLSSTLTLSKADYEKHKVYACEVTHQGLSSPVTKSFNRGECGGGGSGGGGSQVQLVQSGGGVVQPGRSLRLSCKASGYTFTRYTMHWVRQAPGKGLEWIGYINPSRGYTNYNQKVKDRFTISRDNSKNTAFLQMDSLRPEDTGVYFCARYYDDHYSLDYWGQGTPVTVSSGGGGSGGGGSGGGGSDIQMTQSPSSLSASVGDRVTITCSASSSVSYMNWYQQTPGKAPKRWIYDTSKLASGVPSRFSGSGSGTDYTFTISSLQPEDIATYYCQQWSSNPFTFGQGTKLQITR
B1: in experiment [1], the dissociation constant Kd is under 1 pM.

B2: Antibody 113 (bispecific antibody, human IgG1, kappa, L234A L235A)
chain 1: not shown
chain 2: DIQMTQSPSSLSASVGDRVTITCLASEDIYSYLAWYQQKPGKAPKLLIFAANRLQDGVPSRFSGSGSGTDFTLTISSLQPEDFATYYCLQGSKFPYTFGPGTKVDIKGGGGSGGGGSGGGGSQVQLVQSGAEVKKPGSSVKVSCKASGYTFTRNFIHWIRQAPGQGLEWIGWIFPGDADTEYNQKFSGRATITADKSTSTAYMELSSLRSEDTAVYYCARGNYNYEYFDYWGQGTMVTVSSDKTHTCPPCPAPEAAGGPSVFLFPPKPKDTLMISRTPEVTCVVVDVSHEDPEVKFNWYVDGVEVHNAKTKPREEQYNSTYRVVSVLTVLHQDWLNGKEYKCKVSNKALPAPIEKTISKAKGQPREPQVCTLPPSREEMTKNQVSLSCAVKGFYPSDIAVEWESNGQPENNYKTTPPVLDSDGSFFLVSKLTVDKSRWQQGNVFSCSVMHEALHNHYTQKSLSLSPGK
chain 3: DIQMTQSPSSLSASVGDRVTITCLASEDIYSYLAWYQQKPGKAPKLLIFAANRLQSGVPSRFSGSGSGTDFTLTISSLQPEDFATYYCLQGSKFPYTFGPGTKVDIKRTVAAPSVFIFPPSDEQLKSGTASVVCLLNNFYPREAKVQWKVDNALQSGNSQESVTEQDSKDSTYSLSSTLTLSKADYEKHKVYACEVTHQGLSSPVTKSFNRGECGGGGSGGGGSQVQLVQSGGGVVQPGRSLRLSCKASGYTFTRYTMHWVRQAPGKGLEWIGYINPSRGYTNYNQKVKDRFTISRDNSKNTAFLQMDSLRPEDTGVYFCARYYDDHYSLDYWGQGTPVTVSSGGGGSGGGGSGGGGSDIQMTQSPSSLSASVGDRVTITCSASSSVSYMNWYQQTPGKAPKRWIYDTSKLASGVPSRFSGSGSGTDYTFTISSLQPEDIATYYCQQWSSNPFTFGQGTKLQITR
Molecule B2 had a dissociation constant (Kd) in experiment [1] of 32.4 pM.

B3: Antibody 62 (bispecific antibody)
chain 1: not shown
chain 2: DIQMTQSPSFVSASVGDRVTITCLASEDIYSYLAWYQQKPGKAPKLLIFAANRLQDGVPSRFSGGGSGTGFTLTISSLQPEDFATYFCLQGSKFPYTFGQGTKLEINRTVAAPSVFIFPPSDEQLKSGTASVVCLLNNFYPREAKVQWKVDNALQSGNSQESVTEQDSKDSTYSLSSTLTLSKADYEKHKVYACEVTHQGLSSPVTKSFNRGEC
Take B3: the “EC50 of cytotoxic activity (pM)” value in experiment [2] was determined as 91 pM. The same molecule showed a Kd in experiment [1] of under 1 pM.

B4: Antibody 97 (bispecific antibody)
chain 1: not shown
chain 2: DIQMTQSPSSLSASVGDRVTITCLASEDIYSYLAWYQQKPGKAPKLLIFAANRLQDGVPSRFSGSGSGTDFTLTISSLQPEDFATYYCLQGSKFPYTFGPGTKVDIKRTVAAPSVFIFPPSDEQLKSGTASVVCLLNNFYPREAKVQWKVDNALQSGNSQESVTEQDSKDSTYSLSSTLTLSKADYEKHKVYACEVTHQGLSSPVTKSFNRGEC
In experiment [1], B4 gave a dissociation constant (Kd) of under 1 pM.

B5: Antibody 96 (bispecific antibody)
chain 1: not shown
chain 2: DIQMTQSPSSLSASVGDRVTITCLASEDIYSYLAWYQQKPGKAPKLLIFAANRLQDGVPSRFSGSGSGTDFTLTISSLQPEDFATYYCLQGSKFPYTFGPGTKVDIKRTVAAPSVFIFPPSDEQLKSGTASVVCLLNNFYPREAKVQWKVDNALQSGNSQESVTEQDSKDSTYSLSSTLTLSKADYEKHKVYACEVTHQGLSSPVTKSFNRGEC
The molecule B5 yielded a dissociation constant (Kd) in experiment [1] of under 1 pM.

B6: Antibody 95 (bispecific antibody)
chain 1: not shown
chain 2: DIQMTQSPSSLSASVGDRVTITCLASEDIYSYLAWYQQKPGKAPKLLIFAANRLQDGVPSRFSGSGSGTDFTLTISSLQPEDFATYYCLQGSKFPYTFGPGTKVDIKRTVAAPSVFIFPPSDEQLKSGTASVVCLLNNFYPREAKVQWKVDNALQSGNSQESVTEQDSKDSTYSLSSTLTLSKADYEKHKVYACEVTHQGLSSPVTKSFNRGEC
Take B6: in experiment [1], the Kd was under 1 pM.

B7: Antibody 73 (bispecific antibody)
chain 1: not shown
chain 2: DIQMTQSPSFVSASVGDRVTITCLASEDIYSYLAWYQQKPGKAPKLLIFAANRLQSGVPSRFSGGGSGTGFTLTISSLQPEDFATYFCLQGSKFPYTFGQGTKLEINRTVAAPSVFIFPPSDEQLKSGTASVVCLLNNFYPREAKVQWKVDNALQSGNSQESVTEQDSKDSTYSLSSTLTLSKADYEKHKVYACEVTHQGLSSPVTKSFNRGEC
In experiment [1], B7 gave a Kd of under 1 pM.

B8: Antibody 99 (bispecific antibody)
chain 1: not shown
chain 2: DIQMTQSPSSLSASVGDRVTITCLASEDIYSYLAWYQQKPGKAPKLLIFAANRLQDGVPSRFSGSGSGTDFTLTISSLQPEDFATYYCLQGSKFPYTFGPGTKVDIKRTVAAPSVFIFPPSDEQLKSGTASVVCLLNNFYPREAKVQWKVDNALQSGNSQESVTEQDSKDSTYSLSSTLTLSKADYEKHKVYACEVTHQGLSSPVTKSFNRGEC
Regarding B8, in experiment [1], the Kd is under 1 pM.

B9: Antibody 56 (bispecific antibody)
chain 1: not shown
chain 2: DIQMTQSPSFVSASVGDRVTITCLASEDIYSYLAWYQQKPGKAPKLLIFAANRLQDGVPSRFSGGGSGTGFTLTISSLQPEDFATYFCLQGSKFPYTFGQGTKLEINRTVAAPSVFIFPPSDEQLKSGTASVVCLLNNFYPREAKVQWKVDNALQSGNSQESVTEQDSKDSTYSLSSTLTLSKADYEKHKVYACEVTHQGLSSPVTKSFNRGEC
For the molecule B9, the “EC50 of cytotoxic activity (pM)” value in experiment [2] was determined as 45 pM. In experiment [1], the Kd was under 1 pM.

B10: Antibody 87 (bispecific antibody)
chain 1: not shown
chain 2: DIQMTQSPSSLSASVGDRVTITCLASEDIYSYLAWYQQKPGKAPKLLIFAANRLQSGVPSRFSGSGSGTDFTLTISSLQPEDFATYYCLQGSKFPYTFGPGTKVDIKRTVAAPSVFIFPPSDEQLKSGTASVVCLLNNFYPREAKVQWKVDNALQSGNSQESVTEQDSKDSTYSLSSTLTLSKADYEKHKVYACEVTHQGLSSPVTKSFNRGEC
In turn, B10 yielded a dissociation constant Kd in experiment [1] of under 1 pM.

B11: Antibody 98 (bispecific antibody)
chain 1: not shown
chain 2: DIQMTQSPSSLSASVGDRVTITCLASEDIYSYLAWYQQKPGKAPKLLIFAANRLQDGVPSRFSGSGSGTDFTLTISSLQPEDFATYYCLQGSKFPYTFGPGTKVDIKRTVAAPSVFIFPPSDEQLKSGTASVVCLLNNFYPREAKVQWKVDNALQSGNSQESVTEQDSKDSTYSLSSTLTLSKADYEKHKVYACEVTHQGLSSPVTKSFNRGEC
B11 had a Kd in experiment [1] of under 1 pM.

B12: Antibody 79 (bispecific antibody)
chain 1: not shown
chain 2: DIQMTQSPSFVSASVGDRVTITCLASEDIYSYLAWYQQKPGKAPKLLIFAANRLQDGVPSRFSGGGSGTGFTLTISSLQPEDFATYFCLQGSKFPYTFGQGTKLEIKRTVAAPSVFIFPPSDEQLKSGTASVVCLLNNFYPREAKVQWKVDNALQSGNSQESVTEQDSKDSTYSLSSTLTLSKADYEKHKVYACEVTHQGLSSPVTKSFNRGEC
In the case of B12, in experiment [1], the Kd was under 1 pM.

B13: Antibody 81 (bispecific antibody)
chain 1: not shown
chain 2: DIQMTQSPSSLSASVGDRVTITCLASEDIYSYLAWYQQKPGKAPKLLIFAANRLQDGVPSRFSGSGSGTDFTLTISSLQPEDFATYYCLQGSKFPYTFGPGTKVDIKRTVAAPSVFIFPPSDEQLKSGTASVVCLLNNFYPREAKVQWKVDNALQSGNSQESVTEQDSKDSTYSLSSTLTLSKADYEKHKVYACEVTHQGLSSPVTKSFNRGEC
B13 yielded an equilibrium dissociation constant (Kd) in experiment [1] of under 1 pM.

B14: Antibody 93 (bispecific antibody)
chain 1: not shown
chain 2: DIQMTQSPSSLSASVGDRVTITCLASEDIYSYLAWYQQKPGKAPKLLIFAANRLQSGVPSRFSGSGSGTDFTLTISSLQPEDFATYYCLQGSKFPYTFGPGTKVDIKRTVAAPSVFIFPPSDEQLKSGTASVVCLLNNFYPREAKVQWKVDNALQSGNSQESVTEQDSKDSTYSLSSTLTLSKADYEKHKVYACEVTHQGLSSPVTKSFNRGEC
In experiment [1], B14 returned a Kd of under 1 pM.

B15: Antibody 57 (bispecific antibody)
chain 1: not shown
chain 2: DIQMTQSPSFVSASVGDRVTITCLASEDIYSYLAWYQQKPGKAPKLLIFAANRLQDGVPSRFSGGGSGTGFTLTISSLQPEDFATYFCLQGSKFPYTFGQGTKLEINRTVAAPSVFIFPPSDEQLKSGTASVVCLLNNFYPREAKVQWKVDNALQSGNSQESVTEQDSKDSTYSLSSTLTLSKADYEKHKVYACEVTHQGLSSPVTKSFNRGEC
As for B15, the “EC50 of cytotoxic activity (pM)” value in experiment [2] turned out to be 398 pM. The molecule also displayed an equilibrium dissociation constant (Kd) in experiment [1] of under 1 pM.
